Reference: article PMC4439037, “Distinctive Structure of the EphA3/Ephrin-A5 Complex Reveals a Dual Mode of Eph Receptor Interaction for Ephrin-A5” (PLoS ONE, 2015)

B1: human ephrin-A5 receptor-binding domain (domain or fragment)
chain: KAVADRYAVYWNSSNPRFQRGDYHIDVCINDYLDVFCPHYEDSVPEDKTERYVLYMVNFDGYSACDHTSKGFKRWECNRPHSPNGPLKFSEKFQLFTPFSLGFEFRPGREYFYISSAIPDNGRRSCLKLKVFVRPTNSCMK
modifications: deglycosylated with PNGase F
notes: also called ephrin-A5 ligand
B2: human EphA3 ligand-binding domain (domain or fragment)
chain: EVNLLDSKTIQGELGWISYPSHGWEEISGVDEHYTPIRTYQVCNVMDHSQNNWLRTNWVPRNSAQKIYVELKFTLRDCNSIPLVLGTCKETFNLYYMESDDDHGVKFREHQFTKIDTIAADESFTQMDLGDRILKLNTEIREVGPVNKKGFYLAFQDVGACVALVSVRVYFK
notes: also called EphA3 LBD; EphA3 receptor; not shown: GST, N-terminal, cleaved; 10xHis, N-terminal, cleaved

Experiments:
[1] = target: B2; assay: ITC; settings: both partners purified
[2] = target: B1; assay: ITC; settings: both partners purified

Binder | Kd [1] | dH [2]
B1 | 9 nM | –
B2 | – | -2.15 kcal/mol
